From paper PMC9124243 (Cell chemical biology, 2021)

B1: Mycobacterium tuberculosis DnaK T175A (catalytically dead mutant), full-length (natural protein)
chain: not shown
B2: Mycobacterium tuberculosis GrpE (natural protein)
chain: MTDGNQKPDGNSGEQVTVTDKRRIDPETGEVRHVPPGDMPGGTAAADAAHTEDKVAELTADLQRVQADFANYRKRALRDQQAAADRAKASVVSQLLGVLDDLERARKHGDLESGPLKSVADKLDSALTGLGLVAFGAEGEDFDPVLHEAVQHEGDGGQGSKPVIGTVMRQGYQLGEQVLRHALVGVVDTVVVDAAELESVDDGTAVADTAENDQADQGNSADTSGEQAESEPSGS

Legend:
native gel or EMSA = molecular target: the molecule itself; assay: native gel or EMSA
[1] = molecular target: B1; assay: native gel or EMSA

Binder | binding result (native gel or EMSA) | binding result [1]
B1 | binds | –
B2 | – | binds
